Source: PMC7984218

T1: Dna2405N (UniProt P38859)
T1 sequence: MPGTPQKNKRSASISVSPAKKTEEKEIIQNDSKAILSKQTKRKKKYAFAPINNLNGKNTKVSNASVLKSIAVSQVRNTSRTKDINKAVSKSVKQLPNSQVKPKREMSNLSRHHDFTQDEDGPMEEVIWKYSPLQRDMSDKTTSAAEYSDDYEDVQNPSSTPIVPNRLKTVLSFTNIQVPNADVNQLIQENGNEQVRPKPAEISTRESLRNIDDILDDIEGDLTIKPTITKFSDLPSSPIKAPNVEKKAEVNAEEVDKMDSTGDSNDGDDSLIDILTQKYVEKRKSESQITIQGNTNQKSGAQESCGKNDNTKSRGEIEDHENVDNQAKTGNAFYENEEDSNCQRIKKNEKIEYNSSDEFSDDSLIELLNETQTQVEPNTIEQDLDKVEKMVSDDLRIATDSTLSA

T2: GST-Dna2405N-5A-His6 (UniProt P38859 1-405, K41A;R42A;K43A;K44A;K45A)
T2 sequence: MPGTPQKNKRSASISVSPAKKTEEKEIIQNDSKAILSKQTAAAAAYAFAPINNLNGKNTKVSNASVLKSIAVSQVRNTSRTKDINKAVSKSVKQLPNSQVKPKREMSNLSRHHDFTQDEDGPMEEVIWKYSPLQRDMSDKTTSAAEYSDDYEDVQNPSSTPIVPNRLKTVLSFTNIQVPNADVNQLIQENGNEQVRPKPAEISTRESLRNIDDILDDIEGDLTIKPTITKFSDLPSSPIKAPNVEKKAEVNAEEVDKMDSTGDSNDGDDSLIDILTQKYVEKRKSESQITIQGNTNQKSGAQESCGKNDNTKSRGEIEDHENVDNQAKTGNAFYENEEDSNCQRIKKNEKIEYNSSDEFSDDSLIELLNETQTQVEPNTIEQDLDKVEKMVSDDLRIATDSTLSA


Tests used:
Dna2405N = target: T1, Dna2405N; assay: competition
GST-Dna2405N-5A-His6 = target: T2, GST-Dna2405N-5A-His6; assay: EMSA

| Molecule | binding signal (% inhibition of Hairpin binding) (Dna2405N) | binding result (GST-Dna2405N-5A-His6) |
| --- | --- | --- |
| M13mp18 viral DNA (sscDNA) | > 80 |  |
| Hairpin (standard 5' hairpin flap; oligos 1, 2, 5) (structured_DNA) DNA 1: GAAAACATTATTAATGGCGTCGAGCTAGGCACAAGGCGAACTGCTAACGG DNA 2: CCGTTAGCAGTTCGCCTTGTGCCTA DNA 3: GCGCATGTGCGTTCCGTCCGGTTCAAGCCGCAGCGGCTTGAACCGGACGCTCGACGCCATTAATAATGTTTTC |  | no binding |
